Results from US20220112292A1.
Where a chain is given by its changes, count along the chain named.

B1: VHH clone 1G6 (VHH)
VHH: QVQLQQSGGGLVQAGGSLRLSCAASGSIFAINEINLMGWYRQAPGKQRELVAACASDGNTYYADSVKGRFTISRDNAEKTVYLQMNNLKPDDTAVYYCDANSRGNYYSGQGTQVTVSS
B2: VHH clone 2F5 (VHH)
VHH: B1 VHH with V12A, A14T, R19I
B3: VHH clone 1B5 (VHH)
VHH: QVQLQESGGGLVQAGGSLRLSCVVSGATSNVNAMGWYRQAPGKERELVAAISSGGSTSYRDSVKGRFTISRDNAKNTLYLQMNSLKPEDTAMYYCAAQDWATEGYEYDYWGQGTLVTVSS
B4: VHH clone 1H1 (VHH)
VHH: QVQLQESGGGLVQPGGSLRLSCAASGFTFNSYAMTWVRQAPGKGLEWVSDINSGGGSTNYADSVKGRFTISRDNAKNTLYLQMNSLKPEDTAVYYCATELRGSDYYRGPIREYAYWGQGTLVTVSS
B5: VHH clone 2H3 (VHH)
VHH: QVQLQESGGGLVQAGGSLRLSCVASGSIRSINVMGWYRQAPGKQRELVAACASDGNTYYADSVKGRFTISRDNAEKTVYLQMNNLKPDDTAVYYCDANSRGNYYSGQGTQVTVSS
B6: VHH clone 2F3 (VHH)
VHH: QVQLQAFGGGLVQPGGSLRLSCVVSGTMFSGKDVNWLRQAPGKHVEVVATVSSDGGTDYADFVKGRFTISRDDAKNTVNLQMNSLEPEDTANYMCHFLWGRHYWGQGTQVTVSS

Target: CLEC12A/CLL1 (Homo sapiens) (UniProt Q5QGZ9)
Assay: ELISA on plate coated with 1 ug/mL human CLEC12A; sdAb detected with mouse anti-myc mAb and goat anti-mouse IgG-HRP; Abs 450nm

Binder	EC50 [nM]
B1	0.48
B2	0.65
B3	19.5
B4	0.9
B5	0.61
B6	1.5
